The values that follow come from patent US7271143B1, “Peptides for regulation of urokinase (uPA) and tissue type (tPA) plasminogen activator and method of optimizing therapeutic efficacy” (Thrombotech Ltd., priority 2001, dated 2007).

For data set [1] the following is noted: in vitro, cited from earlier work.
For data set [2] the following is noted: cited from earlier work.
Data set [3] has as its target plasminogen activator inhibitor-1 (PAI-1) (Homo sapiens, UniProt P05121). The conditions noted are these: higher than tPA; cited from earlier work.
Data set [4] concerns the target T1, fibrin (Homo sapiens, UniProt P02671+P02675+P02679).
T1 sequence (P02671 20-644 isoform P02671-2 limits assumed): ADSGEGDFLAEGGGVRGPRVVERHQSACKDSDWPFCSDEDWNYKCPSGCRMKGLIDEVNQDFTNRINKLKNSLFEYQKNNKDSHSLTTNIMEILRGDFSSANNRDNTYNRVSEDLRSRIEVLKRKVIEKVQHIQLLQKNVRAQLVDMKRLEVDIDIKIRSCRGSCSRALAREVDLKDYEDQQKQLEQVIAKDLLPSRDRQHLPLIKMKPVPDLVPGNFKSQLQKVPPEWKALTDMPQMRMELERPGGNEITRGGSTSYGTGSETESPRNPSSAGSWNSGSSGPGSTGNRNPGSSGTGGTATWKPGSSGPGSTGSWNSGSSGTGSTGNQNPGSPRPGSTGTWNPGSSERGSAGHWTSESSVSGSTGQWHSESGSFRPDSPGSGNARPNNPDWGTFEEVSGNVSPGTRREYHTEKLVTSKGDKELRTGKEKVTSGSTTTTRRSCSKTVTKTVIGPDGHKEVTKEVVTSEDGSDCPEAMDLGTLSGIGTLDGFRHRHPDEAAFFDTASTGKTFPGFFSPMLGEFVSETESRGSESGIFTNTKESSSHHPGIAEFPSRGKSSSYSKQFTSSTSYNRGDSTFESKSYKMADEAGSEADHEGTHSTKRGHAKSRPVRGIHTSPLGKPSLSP
T1 sequence (P02675 45-491 limits assumed): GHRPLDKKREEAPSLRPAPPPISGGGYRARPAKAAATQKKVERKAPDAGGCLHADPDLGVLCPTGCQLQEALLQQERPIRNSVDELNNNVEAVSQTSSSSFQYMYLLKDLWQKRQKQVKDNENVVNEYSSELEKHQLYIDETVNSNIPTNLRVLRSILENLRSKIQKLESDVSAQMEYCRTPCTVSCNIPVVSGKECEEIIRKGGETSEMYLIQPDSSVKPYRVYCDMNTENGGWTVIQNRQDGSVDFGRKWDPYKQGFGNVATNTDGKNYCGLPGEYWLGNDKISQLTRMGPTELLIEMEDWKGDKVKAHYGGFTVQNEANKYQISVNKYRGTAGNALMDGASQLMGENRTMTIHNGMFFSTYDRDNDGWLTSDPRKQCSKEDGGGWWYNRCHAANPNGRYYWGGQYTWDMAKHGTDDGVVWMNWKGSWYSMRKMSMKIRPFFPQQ
T1 sequence (P02679 27-437 isoform P02679-2 limits assumed): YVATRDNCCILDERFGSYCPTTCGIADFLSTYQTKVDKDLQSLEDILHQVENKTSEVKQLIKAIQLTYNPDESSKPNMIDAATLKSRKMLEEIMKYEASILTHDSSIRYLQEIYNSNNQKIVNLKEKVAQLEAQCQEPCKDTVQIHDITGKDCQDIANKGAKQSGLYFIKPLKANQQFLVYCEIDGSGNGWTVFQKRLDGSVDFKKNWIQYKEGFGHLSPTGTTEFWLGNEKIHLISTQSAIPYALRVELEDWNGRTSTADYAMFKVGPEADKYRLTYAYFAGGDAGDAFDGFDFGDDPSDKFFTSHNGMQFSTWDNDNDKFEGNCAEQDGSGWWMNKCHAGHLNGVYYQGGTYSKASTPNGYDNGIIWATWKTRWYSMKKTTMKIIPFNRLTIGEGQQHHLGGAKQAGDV
The conditions noted are these: greater than tPA; cited from earlier work.

For data set [5] the following is noted: rabbits, arterial venous shunt; cited from earlier work.
Data set [6] relates to isolated rat aorta rings. The data set can be described thus: PE-induced contraction of isolated rat aorta rings. Type of data set: cell-based. The method, then:
FIG. 1A is a diagram describing the results of experiments on the effect of tPA on PE-induced contraction of isolated rat aorta rings. Contraction of aortic rings was induced by increasing the concentrations of phenylephrine (PE), in the absence of tPA (full triangles) or in the presence of 1 nM (filled squares) or 20 nM tPA (empty squares).
FIG. 1B describes the results of experiments in which the contraction of aortic rings was induced in the absence of TNK-tPA (filled triangles), in the presence of 1 nM tPA (filled squares) or 20 nM tPA (empty squares).
FIG. 4 is a graph describing the effect of tPA on phenylepbrine-induced contraction of isolated rat aorta rings in vitro. The contraction of the aorta rings was induced by varying concentrations of phenylephrine in the absence of tPA (filled triangles), in the presence of 1 nM of TA (filled squares) or in the presence of 10 nM tPA (empty squares). The experiments were performed according to procedures described earlier by Haj-Yehia A et al., FASEB J, 2000, 14:1411–1422.
The effect of TNK-tPA on PE-induced contraction was compared with the effect of tPA, in the isolated aorta rings. […]

Like-named read-outs stand apart in the source and are kept apart here.

plasminogen activator inhibitor-1 (PAI-1), sequence (P05121 24-402, species assumed): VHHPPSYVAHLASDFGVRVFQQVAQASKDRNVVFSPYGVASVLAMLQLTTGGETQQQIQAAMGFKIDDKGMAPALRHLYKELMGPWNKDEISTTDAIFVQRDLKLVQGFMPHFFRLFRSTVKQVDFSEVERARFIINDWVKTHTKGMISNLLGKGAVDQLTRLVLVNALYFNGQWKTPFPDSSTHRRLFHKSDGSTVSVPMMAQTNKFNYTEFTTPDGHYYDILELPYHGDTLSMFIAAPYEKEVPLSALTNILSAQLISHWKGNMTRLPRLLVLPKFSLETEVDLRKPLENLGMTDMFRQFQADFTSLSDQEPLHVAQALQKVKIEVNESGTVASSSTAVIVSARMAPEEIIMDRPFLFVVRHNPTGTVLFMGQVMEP

B1: TNK-tPA: bioengineered variant of tissue-type plasminogen activator with tetra-alanine substitution in the protease domain (protein)
chain: SYQVICRDEKTQMIYQQHQSWLRPVLRSNRVEYCWCNSGRAQCHSVPVKSCSEPRCFNGGTCQQALYFSDFVCQCPEGFAGKCCEIDTRATCYEDQGISYRGTWSTAESGAECTNWNSSALAQKPYSGRRPDAIRLGLGNHNYCRNPDRDSKPWCYVFKAGKYSSEFCSTPACSEGNSDCYFGNGSAYRGTHSLTESGASCLPWNSMILIGKVYTAQNPSAQALGLGKHNYCRNPDGDAKPWCHVLKNRRLTWEYCDVPSCSTCGLRQYSQPQFRIKGGLFADIASHPWQAAIFAAAAASPGERFLCGGILISSCWILSAAHCFQERFPPHHLTVILGRTYRVVPGEEEQKFEVEKYIVHKEFDDDTYDNDIALLQLKSDSSRCAQESSVVRTVCLPPADLQLPDWTECELSGYGKHEALSPFYSERLKEAHVRLYPSSRCTSQHLLNRTVTDNMLCAGDTRSGGPQANLHDACQGDSGGPLVCLNDGRMTLVGIISWGLGCGQKDVPGVYTKVTNYLDWIRDNMRP
Take B1: the “potency relative to tPA” value in data set [1] (platelet-enriched clots) is listed as 13 fold; in data set [1] (whole blood clots), 8 fold. In addition, the “efficacy compared with rtPA” value in data set [2] (comparative clinical trials) was “equivalent efficacy”. The non-cerebral bleeding episodes in data set [2] (in vivo) is reported as 4.66%. In addition, in data set [2] (in vivo), the “rate of intracranial hemorrhage compared with rtPA” value is listed as “similar”. Moreover, the “resistance to PAI-1 relative to tPA” value in data set [3] was 80 fold. Also, in data set [4], the relative fibrin specificity is recorded as 14 fold. The “time required for 50% lysis relative to rtPA” value in data set [5] was “one third”. The “effect on PE-induced vasoconstriction” value in data set [6] (1 nM) is recorded as “stimulated”; in data set [6] (20 nM), “increased its stimulatory effect”.
